Assay results from the RNAGym collection of RNA variant scans (doi:10.1073/pnas.2313332121).
Fewer inactive variants are shown than the library holds.

B1: TPR 5TU (parent)
chain: GGAUCUUCUCGAUCUAACAAAAAAGACAAAUCUGCCACAAAGCUUGAGAGCAUCUUCGGAUGCAGAGGCGGCAGCCUUCGGUGGCGCGAUAGCGCCAACGUUCUCAACUAUGACACGCAAAACGCGUGCUCCGUUGAAUGGAGUUUAUCAUG

Variants of: B1
Test: polymerase ribozyme fitness, log enrichment relative to wild type (log ratio); higher = more active; in vitro selection for triplet polymerase activity
In short: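 Libraries of mutants in each subunit of a heterodimeric triplet polymerase ribozyme were generated by PCR and transcribed. In triplicate, each went through one in vitro selection round: annealing with biotinylated primer, partner subunit and triplets; frozen incubation at −7 °C; gel excision of extended constructs; streptavidin-bead capture; RT-PCR. Fitness, taken from Illumina sequencing of input and output libraries, is the logarithm of a genotype's enrichment over wild-type enrichment, averaged across replicates with inverse-variance weights. The logarithm is base 2, and genotypes needed ≥10 input reads and ≥1 read per output to be kept.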

Variant	polymerase ribozyme fitness (log ratio)
C8G C87U	-3.36
C8U G74U C79U C93A G143U	≤ -4.2
C8A C85A	-3.27
U9A A23U C32G C54G G92U U101C G140U	≤ -4.2
U7C A16U G92C C116G	-3.77
U9C U31A U55A G59C U82G C108A C129G U144C	≤ -4.2
U7C G50C C51U C87U G152U	≤ -4.2
C8U A22U A37C C57G C99A U148A G152A	≤ -4.2
U9C A24C A40C C93A C105G G141C	≤ -4.2
C8G A24G C76A U139A A142C U144C U148G	≤ -4.2
C8G G11C C14U G50C C95U C132A U135A A137C	≤ -4.2
U9C C27U G84U G126U	≤ -4.2
U9C C54A C87G U134A	≤ -4.2
U7A A19U A49U G88U G100U	≤ -4.2
U9C A37C U55G A66C G70C C76A C131U	≤ -4.2
C8A A30U G71A U82G C95A C103G U134A G141U	≤ -4.2
U9A U13A A29G C96A C132A	≤ -4.2
U9G A20U U31C C38G G86A U127G	≤ -4.2
U6G A37G C38G C95U C116U G136U U139A U146C	≤ -4.2
U7A C18U	-3.45
U7A C27A G59U G83A G94A C103G	≤ -4.2

Variant	polymerase ribozyme fitness (log ratio)
C8G A20C	-3.59
C8A A22U A41C C93A G136C	≤ -4.2
C8A A17U U55A G81C C87A A91U U144C U145C	≤ -4.2
U6G U13G C14U A24C C76A G81U C87A	≤ -4.2
C8G A147C	≤ -4.2
U7G G141C	-3.41
C8G C14U A26C U61A C69U G80A U145G	≤ -4.2
C8U C57U G71C G86A U104A	≤ -4.2
U7A G50A U78A C79G G86A C87A C99G A115U G141U	≤ -4.2
C8A C116U U135C A150G	≤ -4.2
C8U A19C U33G U53A U55A C96G C108U	-3.8
U9G A29G C85U A121U G128U	≤ -4.2
C8U C57U	-3.18
C8U C57A	-2.69
C8U C32A A49G G92A C96U U127G A138G	≤ -4.2
U7G A60G	-2.7
U6G A40C	1.13
C8U C95U C116G U135A	-3.94
C8U A19G A39U C54U U61A G71A U77A G80C G88U G112C A113G C125G A150U	≤ -4.2
C8A C35G C51U G59A A73G C76A C85G A138U U151C	≤ -4.2
U7A U45G A49C G50C C87U C96A	≤ -4.2

Variant	polymerase ribozyme fitness (log ratio)
U7G U44G U55G C99A	≤ -4.2
U7G U15G A21C A39G U45G G92U U127C	≤ -4.2
C8G C36U C114U A115G U135G A150C	≤ -4.2
U9C C18G A21G A29U C87G	≤ -4.2
C8A A30U C43G U144C	≤ -4.2
C8A C32G A47U C54G G92U	≤ -4.2
C8A C14G C27U G46A C76A U109G C131U G143A	≤ -4.2
C8G A12G C35U C75A G86U U109G U127G A137G	≤ -4.2
C8G G62C G70U C96A C103U	≤ -4.2
U6G U139C	-3.69
C8U G141U	-2.76
C8G A52U C95U U104G G140U	≤ -4.2
C8A A17C A24G A30G C35G G81C A89C G141C	-3.67
U7A A29U A49C U53A G84C U102C	≤ -4.2
U7A A110C A138U	≤ -4.2
C8G G84A	-3.43
C8A U55A C79U G84A C108G G124A	≤ -4.2
C8A U31G U33G A40U C51U U77C C93G C108G C116U A147G	≤ -4.2
U7A U61A G62A G71C C103G	≤ -4.2
U9A C75U G88C C99G U101A C118U A137C	≤ -4.2
U9C A24U A41G C75U G83A G84A C93A	≤ -4.2

Variant	polymerase ribozyme fitness (log ratio)
C8A C76A C85U G143C A150U	≤ -4.2
U7C C35U U127G	-3.61
U9A A22U A39G C96G U109G	≤ -4.2
U7A A24G C32A G88C C99G U104G G140C	-4.07
C8U C57U U61A G117A A121U U134C	-4.09
U9C A17C C54U A120G	≤ -4.2
U9A A21G A41C G48U A49C U111G C131A	≤ -4.2
C8U A24U U55G C69U G74U C87A A138U	≤ -4.2
C8U A39C G59C C96U C103A C114U C116U	≤ -4.2
U7C A39G C85G C105A A107U	≤ -4.2
C8G C10G C14G A41C G83U A119U G141C	≤ -4.2
U6G A37G U53A G80U U90C C149A	≤ -4.2
C8G U82G G84U C85U A107C	≤ -4.2
C8A A40U G42A G68A C85U U144G	≤ -4.2
U7C C27G C96U	≤ -4.2
U6G C54U G81A U135G	-3.31
C8U A17U G42C C116U C125U U146G	≤ -4.2
C8U U15C A17U A40G G42C U61G C75U C93U C129U G133U	≤ -4.2
U7A A28U G67C C87U C96G C123A	≤ -4.2
U7C G50U C87A U90A A106C	≤ -4.2
C8U C27U A37C U55A C87G U111A C118G G124A	≤ -4.2
